# Assay: label from the status in PepcDB records
row,Sequence,protein production
1,NKKIYVGMTADIMHPGLIHIIHEATKYGDVIVGLLTDKAIAEHKRLPYLTYDQRKEVVENIKGVCEVVPQEDWSYVPNLEKLKPDYIIHGDDWKTGPLREVREQVFEVMNAQGGKVIEIPYTRGINSSSLDKDIKAIGT,failed
2,NKYNKIANELIKIIGEDNIISITHCATRLRVMVKDREIINDKKVEKVDEVKGVFFTSGQYQIILGTGIVNKVYAEVEKMGLKTLSKKEQDEL,not failed
3,NLNAIQNFGAMNILCTDKTGTLTCDKIVLEKYINADGSDDHSRRILRHAFLNSYFQTGLKNLMDKAILAHVREENLEHLTEGYTKIDEIPFDFSRRRMSVVIEDQQGKRQIITKGAVEEMLNICSHAEFNGQVYELTDKLRSKAKRISDDMNRNGMRVLAIAQKSFISKARDFAVTDEDEMVLIGYLAFLDP,failed
4,NLNSIQNFGAIDILCTDKTGTLTQDKVVLEYHLNVNGEDDTRVLRHAYLNSYFQTGYKNLMDLAIIHKTEEEEAADSRLIDLSENYVKVDEIPFDFTRRRLTTVVQDNKGKTQMVTKGAVEEMLSICAFAECNGGVQPLTDDVRYRILETVDNLNDKGFRVLAIAQKSNPSPIGAFGVKDECDMVLIGYLAFLDP,failed
5,NNLFVYCEIEDGIVADVSLELLTKGRSLANQLGCQLEAVVAGTGLKDIEKQILPYGVDKLHVFDGEGLYPYTSLPHTSILVNLFKEEQPQICLMGATVIGRDLGPRVSSALTSGLTADCTSLEIGDHEDKKEGKVYKNLLYQIRPAFGGNIVATIVNPEHRPQMATVREGVMKKAILAADYKGEVIHHDVKKYVADTDYVVKVIERHVEKAKNN,failed
6,NQPKRALRYNKRFMGDRRYMSFWSWLTTGNFVNKEFSYYKVPMELDVFDQDAFAESGVPFYVVATDIKTGKPDYIKIDHVFEQMEALRASSALPLVSEIVEYKGKRYMDGGLADSLPI,failed
7,NQTRLNKLQKTLVDKQIDFAFISDYKTIQYITGFGSNPYERILAMIVFADKDPFIFAPALEVEVVKSVGWPYDLYGYQDNEDGLEMIYDHIKERSANPKKIATEQGNLTLSRFNRLQAAFPDADYSFNLTPVIEHQR,not failed
8,NRWITRPKFTHFDLHTLNWDLCLTQANHKSGLALDMLRMLLDSLPQTVSAIEAALSQNDQVTMLSTIHKLHGASCYCGVPTTQRLCQEIESALKREARVEDLEPEILELLDELTKVESAAKQVLSQLSAEITDDQKNGLL,failed
9,NSESKSTPKRLHVSNIPFRFRDPDLRQMFGQFGKILDVEIIFNERGSKGFGFVTFENSADADRAREKLHGTVVEGRKIEVNNATARVMTN,not failed
10,NYDPFVRHSVTVKADRKTAFKTFLEGFPEWWPNNFRTTKVGAPLGVDKKGGRWYEIDEQGEEHTFGLIRKVDEPDTLVIGWRLNGFGRIDPDNSSEFTVTFVADGQKKTRVDVEHTHFDRMGTKHAKRVRNGMDKGWPTILQSFQDKIDEEGAKK,not failed
11,PAIDYKTAFHLAPIGLVLSRDRVIEDCNDELAAIFRCARADLIGRSFEVLYPSSDEFERIGERISPVMIAHGSYADDRIMKRAGGELFWCHVTGRALDRTAPLAAGVWTFEDLSATRRVA,not failed
12,PDGPTQLRALNLTEGFAVLHWKPPQNPVDTYDIQVTAPGAPPLQAETPGSAVDYPLHDLVLHTNYTATVRGLRGPNLTSPASITFTTGLEAPRDLEAKEVTP,not failed
13,PDHGKAEWFRGADGATLRAATFFPAGPARGSVVLSPGRSEPLEKYFEVVDDLLARDFAVLLHDWRGQGLSARALPDRLKGHARGFKTFVSDYEALLDAFETRMPKPWIAVSHSMGGCLTTLALAQGETRFAAAVLSAPMLGLNTAGVPPWLARPLAFVMSRVGLAGEYVQTPYDPLTQTFQGDGLTHDETRYDRYQAQLRAHPEIALGGMTWGWADFAISACAWLRRSKSVEAIAIPVIILGAELDNRVLNADSESIARRIPKGRYVEVPGAFHEILVETDARRALFWQAFDE,failed
14,PDIGTFTVRPLDPTRDAELLHGWVTHPKSAFWMMQEARLHDVEREYMAIAASEYHDAFLGLLDDEPVFLMEKYDPAHVELVGLYEPEPGDVGMHFLVAPTDTPVHGFTRAVITAVMEHLFADPATRRVVVEPDVGNKAVHALNEAVG,failed
15,PDLYNHAIVIGYGRVGSMLAQLLQSRHVPLLVIDDNSEHVLKAHAAGIPAIRGSAAADLVLAEAHPERAKIAVLAIPQPLEAGEILAKLRALNPELTLVARAQNDAEVKHLLGHGADATVVAEHEMAHSLAEMVLSSTNHPNSTRLQPAIA,failed
16,PDVSVQEMVSAYTTFVNKGIRVNPLPITRIEDQYGNVVAQFSPNMVEVLPPDAAYKMLYMLKSVVDGGTGSRLRYRYGFKLDMGGKTGTTQNNSD,failed
17,PEEQRQKLPDITAADPLEYKKQLLKLAISRIVFMRRFIADSLYYLPDVFFVTDKDNNIILLNKAAENLTAELGAQYHYRMPISTILNHLHNEEGHRINFDQVRNNEINSQCYAENGRAFDLRIAACRQVINQPDGWLIMLIDISAVKSAEEQRQRILHLLSHDMRSPQISILALIDRFSRTSC,failed
18,PFCAMENQVLVIRIKIPNSGAVDWTVHSGPQLLFRDVLDVIGQVLPEATTTAFEYEDEDGDRITVRSDEEMKAMLSYYYSTVMEQQVNGQLIEPLQIFPR,not failed
19,PGSTDFNGALILGLGIDLEKAVGWKNAFFEVEGLQYNGQPVNFAAGSVQGYNSIEAGPPLNRTELYQLWLNQTFLDNRLSFRVGKLIPSMNFGYVGRPFVTQTNPQLFTSTTGLIYTPVFVGPAMLGFIPGYYNSAFGLYGSWKSWGAPGDNPATPNGWYTQAGIYDGRGAQGVQTGLTWPNFSGALFSVAEVGGTWTPYADDPATGWGSVAVGGWRQSGPLTAPGGAFEAQTGGMYAYLVQKLGKFRDSEDQNGIVGFVQGGWNSSSTALMHSSLGFGLTFIAPFGDRPLDSYGFGFSWARLNANPLAGYGFNSYETMIQLYAQYHLVGNLFIQPVLTVLPTPGSGGAGAPSVSGTVQLTFPF,failed
20,PLGVSAAGALDRASLRRANRLVGNASSAAAIESVNGGLTVEAVGDQVIAVTGAPTTLTIESPSWVGSDDDDGGARPGGKRTVPMAAPFALLDGELLTLGAPESGFRNYVAIRGGVDAPEVLGSRSADTMSGIGPAPLAIRQVLATGEQTASTAVGAPELQPDFPGAGVTVLDVVPGPRADWFDQEALDSLCNQEWLVTPQSNRVGMRLDGKPLERTREGELPSEGTMAGALQIPPAGLPVLFLADHPITGGYPVIGVVRDEHLDRAAQVPIGGRIRFRLVPDSADFTTTTTKTPEK,not failed
21,PLSFSLLPATRDDIAMIVDRKRAQIARTHQYDVFACGWTVTLLERLVDASAEDFGLRTATLRAGGRVVAAELGLLSEGRYHLWLPIYDPEFARYSPGALMTLDTLEALAGLGVSRVDFGVDAD,failed
22,PNEKFCFEGFLPQKKGRMTKLKSLVDEHRTMVFYESPHRLLKTLTQFAEYFGPERQVSVSREISKIHEETVRGTLSELIEHFTATDPRGEIVIVLAGIDD,not failed
23,PPAAVGPWDDILAPLYRYTRARARELAETRETMQSMLAAAQALPDGVVTLNEDFQIDWANRMARRHLGLRLPADRGHNLLNLLRAPEFVAYAHRGHWPEPILVRLSLNGQERVMMIHLAGYAS,failed
24,PPEAYSLDTAIFVLETRDYRLSDVKEIDSYGDVEMKGKVAVFETEYGPVFLYVYKGEEAKKIWKKLNGRAGFVSIRSVLDLPNMGKFSTVSNGKKIVAWWRKNWLFIVEGKNGVEEFVKHVYRVYEEMKQ,not failed
25,PPLYVPEQLVVHKETHQAHVMIGSRGYNAYDDKRTALYLLNNILGGPGMNSRLNVSLRERRGLVYTVESNLTSYTDTGAFCIYFGTDPEDVDTCLKLTYKELKRMRDVKMTSSQLMAAKKQLIGQIGVASDNNENNALGMAKTFLHYNKYESSESVFRRIEALTAEGLLEVANEMFAEEYLSTLIY,failed
26,PQALEFEYMRWIATGARAFIDAHQDASKLRITHLGGGACTMARYFADVYPQSRNTVVELDAELARLSREWFDIPRAPRVKIRVDDARMVAESFTPASRDVIIRDVFAGAITPQNFTTVEFFEHCHRGLAPGGLYVANCGDHSDLRGAKSELAGMMEVFEHVAVIADPPMLKGRRYGNIILMGSDTEFF,failed
